Results from paper PMC9391306.
Where two headings read alike, the source gives them in different places.

What was measured:
[1] = molecular target: T1, PARP1 Zn1-Zn3 (linked);PARP1 WGR-HD (Homo sapiens?;Homo sapiens?, UniProt P09874;P09874 1-366;527-786, del97-206|del663-676); test: X-ray crystallography
PARP1 G558E = PARP1 G558E (UniProt P09874 1-1014, G558E); test: fluorescence polarization
PARP1 G558V [2] = molecular target: T2, PARP1 G558V (UniProt P09874 1-1014, G558V); test: fluorescence polarization
PARP1 ΔV687-E688 (ΔVE) [3] = molecular target: T3, PARP1 ΔV687-E688 (ΔVE) (UniProt P09874 1-1014, del687-688); test: fluorescence polarization
PARP1 L713F [4] = molecular target: T4, PARP1 L713F (UniProt P09874 1-1014, L713F); test: fluorescence polarization
PARP1 WT [5] = molecular target: T5, PARP1 WT (UniProt P09874 1-1014); test: fluorescence polarization
PARP1 M686G/V687P [6] = molecular target: T6, PARP1 M686G/V687P (UniProt P09874 1-1014, M686G;V687P); test: fluorescence polarization
PARP1 ΔART [7] = molecular target: T7, PARP1 ΔART (UniProt P09874 1-786); test: fluorescence polarization
PARP1 G558L [8] = molecular target: T8, PARP1 G558L (UniProt P09874 1-1014, G558L); test: fluorescence polarization
PARP1 V687A/E688A [9] = molecular target: T9, PARP1 V687A/E688A (UniProt P09874 1-1014, V687A;E688A); test: fluorescence polarization
PARP1 L698A/L701A [10] = molecular target: T10, PARP1 L698A/L701A (UniProt P09874 1-1014, L698A;L701A); test: fluorescence polarization
PARP1 G558V [11] = molecular target: T2, PARP1 G558V; test: fluorescence polarization; remark: listed apart in the source
PARP1 ΔV687-E688 (ΔVE) [12] = molecular target: T3, PARP1 ΔV687-E688 (ΔVE); test: fluorescence polarization; remark: listed apart in the source
PARP1 L713F [13] = molecular target: T4, PARP1 L713F; test: fluorescence polarization; remark: listed apart in the source
PARP1 Y569L = PARP1 Y569L (UniProt P09874 1-1014, Y569L); test: fluorescence polarization
PARP1 Y569A = PARP1 Y569A (UniProt P09874 1-1014, Y569A); test: fluorescence polarization
PARP1 WT [14] = molecular target: T5, PARP1 WT; test: fluorescence polarization; remark: listed apart in the source
PARP1 M686G/V687P [15] = molecular target: T6, PARP1 M686G/V687P; test: fluorescence polarization; remark: listed apart in the source
PARP1 ΔART [16] = molecular target: T7, PARP1 ΔART; test: fluorescence polarization; remark: listed apart in the source
PARP1 G558L [17] = molecular target: T8, PARP1 G558L; test: fluorescence polarization; remark: listed apart in the source
PARP1 V687A/E688A [18] = molecular target: T9, PARP1 V687A/E688A; test: fluorescence polarization; remark: listed apart in the source
PARP1 L698A/L701A [19] = molecular target: T10, PARP1 L698A/L701A; test: fluorescence polarization; remark: listed apart in the source
PARP1 WGR-CAT = PARP1 WGR-CAT (UniProt P09874 518-1014); test: fluorescence polarization
PARP1 WGR-HD = PARP1 WGR-HD (UniProt P09874 527-786, del663-676); test: fluorescence polarization
[20] = molecular target: T1, PARP1 Zn1-Zn3 (linked);PARP1 WGR-HD; test: fluorescence polarization
[21] = molecular target: PARP1 Zn1;PARP1 Zn3;PARP1 WGR-HD (Homo sapiens?;Homo sapiens?;Homo …, UniProt P09874;P09874;P09874 1-96;216-366;527-786, ||del663-676); test: X-ray crystallography
[22] = molecular target: PARP1 Zn1-Zn3 (linked);PARP1 WGR-CAT ΔVE (Homo sapiens?;Homo sapiens?, UniProt P09874;P09874 1-366;518-1014, del97-206|del687-688); test: X-ray crystallography

B1: 10-bp palindromic duplex (dsDNA)
DNA 1: GCCTGCAGGC
DNA 2: GCCTGCAGGC
B1: binds [1].

B2: 18-bp DSB duplex (dsDNA)
DNA 1: GGGTTGCGGCCGCTTGGG
DNA 2: CCCAAGCGGCCGCAACCC
B2 showed a Kd (PARP1 G558E) of 0.119 ± 0.0232 µM, a Kd (PARP1 G558V [2]) of 0.0667 ± 0.0074 µM and a Kd (PARP1 ΔV687-E688 (ΔVE) [3]) of 0.0094 ± 0.0013 µM. The Kd (PARP1 L713F [4]) was 0.0213 ± 0.0035 µM, the Kd (PARP1 WT [5]) was 0.0597 ± 0.0092 µM and the Kd (PARP1 M686G/V687P [6]) was 0.0073 ± 0.0023 µM. The Kd (PARP1 ΔART [7]) was 0.0121 ± 0.0046 µM, the Kd (PARP1 G558L [8]) was 0.0572 ± 0.0058 µM and the Kd (PARP1 V687A/E688A [9]) was 0.0712 ± 0.0107 µM. It also gave a Kd (PARP1 L698A/L701A [10]) of 0.0644 ± 0.0134 µM, a Kd (PARP1 G558V [11]) of 0.0102 ± 0.0015 µM and a Kd (PARP1 ΔV687-E688 (ΔVE) [12]) of 0.008 ± 0.0019 µM. It also gave a Kd (PARP1 L713F [13]) of 0.0062 ± 0.0031 µM, a Kd (PARP1 Y569L) of 0.0408 ± 0.0021 µM and a Kd (PARP1 Y569A) of 0.0206 ± 0.0014 µM. The Kd (PARP1 WT [14]) was 0.0084 ± 0.001 µM, the Kd (PARP1 M686G/V687P [15]) was 0.0048 ± 0.0014 µM and the Kd (PARP1 ΔART [16]) was 0.0154 ± 0.0018 µM. For the same binder, the Kd (PARP1 G558L [17]) was 0.0076 ± 0.0012 µM, the Kd (PARP1 V687A/E688A [18]) was 0.0103 ± 0.0036 µM and the Kd (PARP1 L698A/L701A [19]) was 0.0153 ± 0.0078 µM. For the same binder, the binding result (PARP1 WGR-CAT) was “no binding”, the binding result (PARP1 WGR-HD) was “no binding” and the Kd [20] was 0.007 ± 0.0024 µM.

B3: 12-bp palindromic duplex (dsDNA)
DNA 1: ATGCGGCCGCAT
DNA 2: ATGCGGCCGCAT
B3: binds [21].

B4: 5-bp duplex (dsDNA)
DNA 1: CGACG
DNA 2: CGTCG
B4: binds [22].
